Reference: publication doi:10.1101/2024.02.02.578563

How the values were obtained:
Experiment in all cases: EMSA
rGST APE1 WT = rGST APE1 WT (human, UniProt P27695 1-318)
rGST hnRNPA2B1 = rGST hnRNPA2B1 (UniProt P22626 1-353)
[1] = target: rGST APE1 NdeltaN33 (APE1NΔ33) (human, UniProt P27695 34-318, del1-33)
rGST APE1 NdeltaN33 (APE1NΔ33), sequence (P27695 34-318, stated change not applied): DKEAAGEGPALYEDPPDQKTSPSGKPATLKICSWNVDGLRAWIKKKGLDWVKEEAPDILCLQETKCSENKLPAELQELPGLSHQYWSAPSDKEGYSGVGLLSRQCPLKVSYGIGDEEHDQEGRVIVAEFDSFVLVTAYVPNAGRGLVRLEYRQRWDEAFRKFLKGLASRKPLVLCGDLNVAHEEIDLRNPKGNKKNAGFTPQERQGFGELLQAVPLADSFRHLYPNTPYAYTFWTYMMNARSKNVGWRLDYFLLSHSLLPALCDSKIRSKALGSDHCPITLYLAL

rGST APE1 WT, sequence (P27695 whole entry): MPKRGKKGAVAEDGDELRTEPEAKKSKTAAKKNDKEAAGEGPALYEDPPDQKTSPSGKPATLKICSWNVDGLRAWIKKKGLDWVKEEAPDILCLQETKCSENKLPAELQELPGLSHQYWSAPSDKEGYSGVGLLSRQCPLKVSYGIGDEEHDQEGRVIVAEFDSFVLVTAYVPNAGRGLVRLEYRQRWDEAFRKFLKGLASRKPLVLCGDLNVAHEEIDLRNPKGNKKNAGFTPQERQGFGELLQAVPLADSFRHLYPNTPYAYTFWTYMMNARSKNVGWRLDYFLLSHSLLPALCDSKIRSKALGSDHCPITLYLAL
rGST hnRNPA2B1, sequence (P22626 whole entry): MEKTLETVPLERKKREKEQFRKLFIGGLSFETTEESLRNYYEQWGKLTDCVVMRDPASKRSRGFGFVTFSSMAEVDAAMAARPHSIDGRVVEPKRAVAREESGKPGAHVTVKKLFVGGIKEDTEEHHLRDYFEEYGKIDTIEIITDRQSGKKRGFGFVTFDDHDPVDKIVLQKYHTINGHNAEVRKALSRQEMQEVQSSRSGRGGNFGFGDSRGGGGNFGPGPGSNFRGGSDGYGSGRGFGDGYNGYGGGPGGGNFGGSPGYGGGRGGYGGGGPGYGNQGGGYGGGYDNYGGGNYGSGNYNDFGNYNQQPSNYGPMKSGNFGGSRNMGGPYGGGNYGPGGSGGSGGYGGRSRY

Binder	binding result (rGST APE1 WT)	binding result (rGST hnRNPA2B1)	binding result [1]
GUGUGUACGGAUUGUAGAA (ssRNA) [scrEXO-miR-1246]	no binding	–	–
GGGGAGGUUAGGGAGGAGGGGGGUAGGCGCC (ssRNA) [EXO-miR]	binds	binds	–
AAUGGAUUUUUGGAGCAGG (ssRNA) [hsa-miR-1246]	binds	binds	no binding
